Changes are numbered by the printed parent chain.
Experiments:
[1] = biological target: T1, mouse CB1 (on TRex-CHO cells) (mouse, UniProt P47746 1-473); experiment: flow cytometry on cells expressing mouse CB1
T1 construct: whole, on cells; also called TRexCHO Mouse CB1

[2] = biological target: T2, human CB2 (on TRex-CHO cells) (human, UniProt P34972 1-360); experiment: flow cytometry, mean fluorescence intensity against antibody concentration, TRex-CHO human CB2 cells
T2 construct: whole, on cells; also called TRexCHO Human CB2; CB2 expression cell line
T2 sequence (P34972 whole entry): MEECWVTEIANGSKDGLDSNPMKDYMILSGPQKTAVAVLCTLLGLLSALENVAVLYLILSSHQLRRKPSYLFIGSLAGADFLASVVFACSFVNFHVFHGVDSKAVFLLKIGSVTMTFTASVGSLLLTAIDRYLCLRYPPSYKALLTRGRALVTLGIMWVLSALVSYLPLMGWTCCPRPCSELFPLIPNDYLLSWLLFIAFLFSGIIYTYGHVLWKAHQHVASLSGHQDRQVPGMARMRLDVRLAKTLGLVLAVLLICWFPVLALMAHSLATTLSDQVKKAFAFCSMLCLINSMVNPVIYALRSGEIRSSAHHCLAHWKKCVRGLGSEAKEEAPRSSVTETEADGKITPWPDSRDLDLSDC

[3] = biological target: T1, mouse CB1 (on TRex-CHO cells); experiment: flow cytometry, mean fluorescence intensity against antibody concentration, TRex-CHO mouse CB1 cells
[4] = biological target: T3, native full length human CB1 receptor (TRex-CHO A156 cells) (human, UniProt P21554 1-472); experiment: cell-based or functional assay
T3 sequence (P21554 whole entry): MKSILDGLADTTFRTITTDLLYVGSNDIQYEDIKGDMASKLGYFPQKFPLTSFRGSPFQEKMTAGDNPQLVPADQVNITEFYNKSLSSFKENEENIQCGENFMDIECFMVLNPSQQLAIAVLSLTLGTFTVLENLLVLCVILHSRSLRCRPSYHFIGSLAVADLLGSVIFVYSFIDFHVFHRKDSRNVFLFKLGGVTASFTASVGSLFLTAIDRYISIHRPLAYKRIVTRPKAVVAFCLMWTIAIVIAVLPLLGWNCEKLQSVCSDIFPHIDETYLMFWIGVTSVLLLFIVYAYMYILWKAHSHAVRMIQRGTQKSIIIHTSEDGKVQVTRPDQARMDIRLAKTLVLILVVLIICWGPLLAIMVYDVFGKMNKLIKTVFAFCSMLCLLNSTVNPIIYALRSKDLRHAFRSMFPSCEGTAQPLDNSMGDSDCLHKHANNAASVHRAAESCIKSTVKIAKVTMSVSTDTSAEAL

[5] = biological target: T3, native full length human CB1 receptor …; experiment: cell-based or functional assay; remark: listed apart in the source
[6] = biological target: T3, native full length human CB1 receptor …; experiment: cell-based or functional assay; remark: listed apart in the source
[7] = biological target: T3, native full length human CB1 receptor …; experiment: cell-based or functional assay; remark: listed apart in the source
[8] = biological target: T3, native full length human CB1 receptor …; experiment: cell-based or functional assay; remark: listed apart in the source
[9] = biological target: T3, native full length human CB1 receptor …; experiment: cell-based or functional assay; remark: listed apart in the source
[10] = biological target: T3, native full length human CB1 receptor …; experiment: cell-based or functional assay; remark: listed apart in the source
[11] = biological target: T3, native full length human CB1 receptor …; experiment: cell-based or functional assay; remark: listed apart in the source

T1 sequence (P47746 whole entry): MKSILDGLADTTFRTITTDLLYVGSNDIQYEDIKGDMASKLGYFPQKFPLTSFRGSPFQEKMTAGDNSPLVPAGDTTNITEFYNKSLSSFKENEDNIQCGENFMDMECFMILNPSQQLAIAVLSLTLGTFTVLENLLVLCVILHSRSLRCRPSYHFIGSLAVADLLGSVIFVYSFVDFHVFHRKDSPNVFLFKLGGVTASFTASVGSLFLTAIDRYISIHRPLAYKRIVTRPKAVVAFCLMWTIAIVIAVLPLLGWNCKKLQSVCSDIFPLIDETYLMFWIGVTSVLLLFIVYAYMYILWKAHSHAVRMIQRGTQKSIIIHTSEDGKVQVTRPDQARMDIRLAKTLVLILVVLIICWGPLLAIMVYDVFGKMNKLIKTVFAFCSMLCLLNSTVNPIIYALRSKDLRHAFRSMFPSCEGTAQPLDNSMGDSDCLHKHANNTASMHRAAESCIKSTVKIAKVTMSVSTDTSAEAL

B1: 36E12B6C2 IgG (antibody, V domains shown)
VH: QVQLQQSGAELVRPGSSVKISCKASGYEFSYYWMNWVKQRPGQGLQWIGQIYPGDGDTNYNGKFKGKATLTADKSSSTAYMHLTSLTSEDSAVYFCARSGGNPFAFWGQGTLVTVSA
VL: DIQMTQTSSSLSASLGDRVTFSCRASQDISNYLNWYQQKPDGTVKLLIYYTSRLHSGVTSRFRGSGSGTDYSLTISNLEQEDVATYFCQQGHTLPWSFGGGTKLEIKR
notes: Hybridoma-derived
[1]
  binding result: no binding

B2: P1C4-h2-IgG1 (antibody)
heavy: not shown
light: EIVLTQSPATLSLSPGERATLSCRASQSVSSSYLHWYQQKPGQAPRLLIYSTSNLASGIPARFSGSGSGTDFTLTISRLEPEDFAVYYCHQYHRSPPTFGQGTKVEIKRTVAAPSVFIFPPSDEQLKSGTASVVCLLNNFYPREAKVQWKVDNALQSGNSQESVTEQDSKDSTYSLSSTLTLSKADYEKHKVYACEVTHQGLSSPVTKSFNRGEC
[2]
  binding result: no binding (tested: about 300 nM)
[3]
  binding result: no binding (tested: about 300 nM)

B3: P1C4-h4-IgG1 (antibody)
heavy: not shown
light: B2 light
notes: also called P1C4-H4 (YENG); P1C4-H4 (YENG)-IgG
[2]
  binding result: no binding (tested: about 300 nM)
[3]
  binding result: no binding (tested: about 300 nM)

B4: P1C4-H4-IgG4 (antibody)
heavy: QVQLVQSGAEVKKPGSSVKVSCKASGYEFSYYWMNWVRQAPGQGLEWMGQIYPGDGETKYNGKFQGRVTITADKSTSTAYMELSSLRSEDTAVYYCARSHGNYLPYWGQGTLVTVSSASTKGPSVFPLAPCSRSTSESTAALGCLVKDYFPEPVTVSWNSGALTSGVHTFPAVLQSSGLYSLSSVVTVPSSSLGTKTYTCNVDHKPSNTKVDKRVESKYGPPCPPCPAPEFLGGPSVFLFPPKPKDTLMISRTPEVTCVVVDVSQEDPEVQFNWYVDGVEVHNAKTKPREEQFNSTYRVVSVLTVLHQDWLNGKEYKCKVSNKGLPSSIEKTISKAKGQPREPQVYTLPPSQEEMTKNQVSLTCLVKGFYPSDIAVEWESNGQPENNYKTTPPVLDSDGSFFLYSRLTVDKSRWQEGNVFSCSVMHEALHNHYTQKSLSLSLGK
light: B2 light
[4]
  cAMP IC50, antagonist assay; CHO-S batch [n]: 51 nM
  cAMP IC50, antagonist assay; Mean of Batch 1 [n]: 54 nM
  cAMP IC50, antagonist assay; Mean of Batch 2 [n]: 54 nM
[5]
  IC50, cAMP activity; after dialysis to pH 3 and 48 h at 40 C: 139 nM
  IC50, cAMP activity; after dialysis to pH 9 and 48 h at 40 C: 64 nM
[6]
  IC50, potency (cAMP); at 4 C for 33 days: 62 nM
  IC50, potency (cAMP); at 40 C for 33 days: 71 nM
[7]
  IC50, cAMP antagonist assay; after 5 freeze/thaw cycles: 32 nM

B5: P1C4-h0-IgG1 (antibody, V domains shown)
VH: QVQLVQSGAEVKKPGSSVKVSCKASGGTFSYYWMNWVRQAPGQGLEWMGQIYPGDGETKYAQKFQGRVTITADKSTSTAYMELSSLRSEDTAVYYCARSHGNYLPYWGQGTLVTVSS
VL: EIVLTQSPATLSLSPGERATLSCRASQSVSSSYLHWYQQKPGQAPRLLIYSTSNLASGIPARFSGSGSGTDFTLTISRLEPEDFAVYYCHQYHRSPPTFGQGTKVEIKR
[8]
  IC50, cAMP functional assay, native human CB1 TRex-CHO cells: 146 nM
[4]
  cAMP IC50, antagonist assay; Mean of Batch 1 [n]: 158 nM
  cAMP IC50, antagonist assay; Mean of Batch 2 [n]: 343 nM
[2]
  binding result: no binding (tested: about 300 nM)
[3]
  binding result: no binding (tested: about 300 nM)

B6: P1C4-h2 Fab (Fab, V domains shown)
VH: B5 VH with G27Y, T28E
VL: EIVLTQSPATLSLSPGERATLSCRASQSVSSSYLHWYQQKPGQAPRLLIYSTSNLASGIPARFSGSGSGTDFTLTISRLEPEDFAVYYCHQYHRSPPTFGQGTKVEIK
[9]
  IC50 cAMP assay (Fab), CB1 TRex CHO cells: 52 nM
[10]
  IC50 (read off the curve): ~30 nM

B7: P1C4-h4 Fab (Fab, V domains shown)
VH: B5 VH with G27Y, T28E, A61N, Q62G
VL: B6 VL
[9]
  IC50 cAMP assay (Fab), CB1 TRex CHO cells: 43 nM
[10]
  IC50 (read off the curve): ~40 nM

B8: PA2LR3-P6G7 (chimeric) (antibody, human IgG1, kappa, V domains shown)
VH: EVQLQQSGAELVRPGSSVKISCKASGFAFSNYWMNWVKQRPGQGLEWIGQIYPGDGDTNFNGKFKGRAILTADISSNTAYMQLSSLTSEDSAVYFCARSHGNYFPYWGQGTLVTVSA
VL: DIVLTQSPAIMSASLGERVTMTCTASSSVSSSYLHWYQQKPGSSPKLWIYSTSNLASGVPARFSGSGSGTSYSLTISSMEAEDAATYYCHQHHRSPPTFGAGTKLELKR
[11]
  EC50, cAMP agonist functional assay, CB1 TRex CHO cells: > 300 nM

B9: PA2LR3-P4B1 (chimeric) (antibody, human IgG1, kappa, V domains shown)
VH: B8 VH
VL: B8 VL with D1Q, H92Y, P97L
[11]
  EC50, cAMP agonist functional assay, CB1 TRex CHO cells: > 300 nM

B10: PA2LR3-P2D3 (chimeric) (antibody, human IgG1, kappa, V domains shown)
VH: B8 VH with F27Y, N31Y, F60Y, R67K, I69T, I74K, N77S, N102S, P105A
VL: DIELAQSPASLAVSLGQRATISCRASESVDSYGNSFMHWYQQKPGQPPKLLIYLASNLESGVPARFSGSGSRADFTLTIDPVEADDAATYYCLQYASSPPTFGAGTKLEIKR
[11]
  EC50, cAMP agonist functional assay, CB1 TRex CHO cells: > 300 nM

B11: PA2LR3-P6B12 (chimeric) (antibody, human IgG1, kappa, V domains shown)
VH: B8 VH with F27Y, N31Y, F60Y, R67K, I69T, I74K, N77S, P105A
VL: B8 VL with D1Q, H92Y, P97L, T98A
[11]
  EC50, cAMP assay in the presence of CP55940, CB1 TRex CHO cells: ~1000 nM

Reference: patent US20250236669A1 (BIRD ROCK BIO, published 2025)
